Measurements reported in US20220096653A1, “CONJUGATE COMPRISING LIGAND AND CEACAM5 ANTIBODY FAB FRAGMENT” (ASTELLAS PHARMA INC., priority 2019, published 2022).

T1: CEACAM5 (R&D Systems, 4128-CM-050) (human, UniProt P06731 35-685)
T1 construct: Immobilised on the ELISA plate; also called human CEACAM5
T1 sequence (looked up): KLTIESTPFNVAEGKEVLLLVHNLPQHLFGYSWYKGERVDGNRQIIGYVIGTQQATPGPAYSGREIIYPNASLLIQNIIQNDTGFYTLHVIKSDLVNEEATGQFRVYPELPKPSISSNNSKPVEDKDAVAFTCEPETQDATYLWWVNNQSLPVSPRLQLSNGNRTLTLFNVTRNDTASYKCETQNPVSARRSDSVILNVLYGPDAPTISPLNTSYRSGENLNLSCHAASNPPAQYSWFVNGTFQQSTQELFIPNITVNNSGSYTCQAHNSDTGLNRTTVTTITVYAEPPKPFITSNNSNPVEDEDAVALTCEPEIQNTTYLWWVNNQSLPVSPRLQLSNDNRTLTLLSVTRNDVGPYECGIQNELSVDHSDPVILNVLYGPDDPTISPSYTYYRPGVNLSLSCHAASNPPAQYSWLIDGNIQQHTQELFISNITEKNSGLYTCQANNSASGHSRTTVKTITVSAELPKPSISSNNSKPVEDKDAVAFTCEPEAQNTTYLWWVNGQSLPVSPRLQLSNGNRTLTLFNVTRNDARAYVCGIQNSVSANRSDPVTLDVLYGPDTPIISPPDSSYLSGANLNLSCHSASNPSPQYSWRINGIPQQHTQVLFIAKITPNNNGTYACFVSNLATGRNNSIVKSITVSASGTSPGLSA

B1: (Y-S1-X)p-Fab^2 with Y Gd/DOTA, S1 spacer (i), X -Met -Gly-Lys*-Z2(#N)- (Fab, V domains shown)
VH: EVQLVESGGGLVQPGGSLRLSCAASGFNIRDTYMHWVRQAPGKGLEWVARIDPANGNSRYVPKFQGRFTISADTSRNTAYLQMNSLRAEDTAVYYCAPFGYYVSDYAMAYWGQGTLVTVSS
VL: DIQLTQSPSSLSASVGDRVTITCRAGESVDIFGVGFLHWYQQKPGKAPKLLIYRASNLESGIPSRFSGSGSRTDFTLTISSLQPEDFATYYCQQTNEDPYTFGQGTKVEIKR
modifications: labeling may sit on this chain; sites not stated; labeling portion (MW 1296) on amino groups of the Fab, sites and chain not stated; 1-2 per Fab by MS
notes: also called Ex-No 45; conjugate 45
B2: (Y-S1-X)p-Fab^2 with Y Gd/DOTA, S1 spacer (k), X -Met-Gly-Lys*-Z2(#N)- (Fab, V domains shown)
VH: EVQLVESGGGLVQPGGSLRLSCAASGFNIRDTYMHWVRQAPGKGLEWVARIDPANGNSRYVPKFQGRFTISADTSRNTAYLQMNSLRAEDTAVYYCAPFGYYVSDYAMAYWGQGTLVTVSS
VL: DIQLTQSPSSLSASVGDRVTITCRAGESVDIFGVGFLHWYQQKPGKAPKLLIYRASNLESGIPSRFSGSGSRTDFTLTISSLQPEDFATYYCQQTNEDPYTFGQGTKVEIKR
modifications: labeling may sit on this chain; sites not stated; labeling portion (MW 1296) on amino groups of the Fab, sites and chain not stated; 1-2 per Fab by MS
notes: also called Ex-No 46; conjugate 46
B3: (Y-S1-X)p-Fab^2 with Y Gd/DOTA, S1 - (bond), X -Gly-Lys*-C(═S)-NH-(1,4-Ph)-NH-C(═S)- (Fab, V domains shown)
VH: EVQLVESGGGLVQPGGSLRLSCAASGFNIRDTYMHWVRQAPGKGLEWVARIDPANGNSRYVPKFQGRFTISADTSRNTAYLQMNSLRAEDTAVYYCAPFGYYVSDYAMAYWGQGTLVTVSS
VL: DIQLTQSPSSLSASVGDRVTITCRAGESVDIFGVGFLHWYQQKPGKAPKLLIYRASNLESGIPSRFSGSGSRTDFTLTISSLQPEDFATYYCQQTNEDPYTFGQGTKVEIKR
modifications: labeling may sit on this chain; sites not stated; labeling portion (MW 937) on amino groups of the Fab, sites and chain not stated; 1-2 per Fab by MS
notes: also called Ex-No 1; conjugate 1
B4: [Gd/DOTA]p-Fab^2 (Fab, V domains shown)
VH: EVQLVESGGGLVQPGGSLRLSCAASGFNIRDTYMHWVRQAPGKGLEWVARIDPANGNSRYVPKFQGRFTISADTSRNTAYLQMNSLRAEDTAVYYCAPFGYYVSDYAMAYWGQGTLVTVSS
VL: DIQLTQSPSSLSASVGDRVTITCRAGESVDIFGVGFLHWYQQKPGKAPKLLIYRASNLESGIPSRFSGSGSRTDFTLTISSLQPEDFATYYCQQTNEDPYTFGQGTKVEIKR
modifications: labeling may sit on this chain; sites not stated; [Gd/DOTA] (MW 542) on amino groups of the Fab, sites and chain not stated; 1-2 per Fab by MS
notes: also called Ex-No 47; conjugate 47
B5: [Gd/4arm-DOTA-CH2-(1,4-Ph)-NH-C(═S)]p-Fab^2 (Fab, V domains shown)
VH: EVQLVESGGGLVQPGGSLRLSCAASGFNIRDTYMHWVRQAPGKGLEWVARIDPANGNSRYVPKFQGRFTISADTSRNTAYLQMNSLRAEDTAVYYCAPFGYYVSDYAMAYWGQGTLVTVSS
VL: DIQLTQSPSSLSASVGDRVTITCRAGESVDIFGVGFLHWYQQKPGKAPKLLIYRASNLESGIPSRFSGSGSRTDFTLTISSLQPEDFATYYCQQTNEDPYTFGQGTKVEIKR
modifications: labeling may sit on this chain; sites not stated; labeling portion (MW 706) on amino groups of the Fab, sites and chain not stated; 1 per Fab by MS
notes: also called Ex-No 48; conjugate 48
B6: (Y-S1-X)p-Fab^2 with Y Gd/4arm-DOTA, S1 -CH2-(1,4-Ph)-NH-C(═S)-, X -Met-Gly-Lys*-Z2(#N)- (Fab, V domains shown)
VH: EVQLVESGGGLVQPGGSLRLSCAASGFNIRDTYMHWVRQAPGKGLEWVARIDPANGNSRYVPKFQGRFTISADTSRNTAYLQMNSLRAEDTAVYYCAPFGYYVSDYAMAYWGQGTLVTVSS
VL: DIQLTQSPSSLSASVGDRVTITCRAGESVDIFGVGFLHWYQQKPGKAPKLLIYRASNLESGIPSRFSGSGSRTDFTLTISSLQPEDFATYYCQQTNEDPYTFGQGTKVEIKR
modifications: labeling may sit on this chain; sites not stated; labeling portion (MW 1121) on amino groups of the Fab, sites and chain not stated; 1 per Fab by MS
notes: also called Ex-No 54; conjugate 54
B7: (Y-S1-X)p-Fab^2 with Y Gd/4arm-DOTA, S1 -CH2-(1,4-Ph)-NH-C(═S)-, X -Gly-(naph-Ala)-Lys*-Z2(#N)- (Fab, V domains shown)
VH: EVQLVESGGGLVQPGGSLRLSCAASGFNIRDTYMHWVRQAPGKGLEWVARIDPANGNSRYVPKFQGRFTISADTSRNTAYLQMNSLRAEDTAVYYCAPFGYYVSDYAMAYWGQGTLVTVSS
VL: DIQLTQSPSSLSASVGDRVTITCRAGESVDIFGVGFLHWYQQKPGKAPKLLIYRASNLESGIPSRFSGSGSRTDFTLTISSLQPEDFATYYCQQTNEDPYTFGQGTKVEIKR
modifications: labeling may sit on this chain; sites not stated; labeling portion (MW 1187) on amino groups of the Fab, sites and chain not stated; 1-2 per Fab by MS
notes: also called Ex-No 55; conjugate 55
B8: (Y-S1-X)p-Fab^2 with Y Gd/4arm-DOTA, S1 -CH2-(1,4-Ph)-NH-C(═S)-, X -Gly-Tyr-Lys*-Z2(#N)- (Fab, V domains shown)
VH: EVQLVESGGGLVQPGGSLRLSCAASGFNIRDTYMHWVRQAPGKGLEWVARIDPANGNSRYVPKFQGRFTISADTSRNTAYLQMNSLRAEDTAVYYCAPFGYYVSDYAMAYWGQGTLVTVSS
VL: DIQLTQSPSSLSASVGDRVTITCRAGESVDIFGVGFLHWYQQKPGKAPKLLIYRASNLESGIPSRFSGSGSRTDFTLTISSLQPEDFATYYCQQTNEDPYTFGQGTKVEIKR
modifications: labeling may sit on this chain; sites not stated; labeling portion (MW 1153) on amino groups of the Fab, sites and chain not stated; 1-2 per Fab by MS
notes: also called Ex-No 56; conjugate 56

Molecular target: T1, CEACAM5 (R&D Systems, 4128-CM-050)
Test: ELISA on immobilised CEACAM5, 4-parameter fit, duplicate
Protocol: Each anti-human CEACAM5 antibody Fab fragment conjugate prepared in Example 2 was subjected to ELISA to evaluate the binding activity thereof to CEACAM5. In the present test, a phosphate buffer (Nacalai Tesque Inc., 0.1 mol/L-Phosphate Buffer Solution (pH 7.2)) prepared to 10 mM by diluting 10-fold with distilled water was used as a solvent for an antigen immobilization liquid, and 20×PBS/Tween 20 Buffer (Thermo Fisher Scientific Inc., 28352) diluted 20-fold with distilled water was used as a wash liquid. In addition, for bovine serum albumin (BSA) used in the present test, 30% Bovine Serum Albumin solution (Sigma-Aldrich, Inc., A9576-50ML) was added in an appropriate proportion for use. CEACAM5 (R&D Systems, 4128-CM-050) was diluted with a 10 mM phosphate buffer (pH 7.2) to 0.1 μg/mL, and added to a Nunc MaxiSorp White 384 plate (Nunc, 4603272) at 30 μL per well, and the plate was incubated overnight at 4° C. for immobilization. The CEACAM5 immobilization liquid was removed by reverse centrifugation, and then blocking was carried out by adding a PBS/Tween 20 buffer containing 5.0% BSA. Thereafter, the blocking solution was removed by reverse centrifugation, a solution of each CEACAM5 antibody Fab² fragment conjugate described above or a Fab² fragment having no labeling portion (PB009-01) as a control at about 10000 ng/mL was diluted in 14 steps by 3-fold dilution using a PBS/Tween 20 buffer containing 1.0% BSA, and 30 μL was added per well and incubated at room temperature for 60 minutes. The plate was washed 3 times with a PBS/Tween 20 buffer, and Horseradish Peroxidase (HRP)-labeled goat anti-human IgG (H+L chain) antibody (MBL Life Sciences, 206) diluted 1000-fold using a PBS/Tween 20 buffer containing 5.0% BSA was added at 30 μL per well and incubated at room temperature for 30 minutes. The plate was washed 3 times with a PBS/Tween 20 buffer, and ECL Prime Western Blotting DETECTION Reagent (GE Healthcare, RPN2232) as a substrate was added at 30 μL per well. The substrate was incubated at room temperature for 15 minutes, and then a signal value thereof was measured using an Envision counter (PerkinElmer, Inc.).
The test for each antibody was carried out in duplicate, and an EC₅₀ value was calculated using a 4-parameter logistic curve model.

Point of comparison: B8, EC50 0.26 nM. Against it:
- B1 — within 1.5-fold, 0.23 nM
- B2 — within 1.5-fold, 0.22 nM
- B3 — 1.6-fold lower, 0.16 nM
- B4 — within 1.5-fold, 0.25 nM
- B5 — within 1.5-fold, 0.21 nM
- B6 — within 1.5-fold, 0.23 nM
- B7 — the same, 0.26 nM
